In patent US20100291189A1 (RIKEN, published 2010):

Molecular target: the molecule itself
Test: SDS-PAGE/CBB staining of sucrose gradient liposome fractions; self-association (homo-tetramer)

B1: E. coli-derived water channel (AQPZ), full-length, with N-terminal native His tag and TEV protease recognition site, cell-free synthesized (other)
chain: MKDHLIHNVHKEEHAHAHNKDYDIPTTENLYFQGSSGSSGMFRKLAAECFGTFWLVFGGCGSAVLAAGFPELGIGFAGVALAFGLTVLTMAFAVGHISGGHFNPAVTIGLWAGGRFPAKEVVGYVIAQVVGGIVAAALLYLIASGKTGFDAAASGFASNGYGEHSPGGYSMLSALVVELVLSAGFLLVIHGATDKFAPAGFAPIAIGLALTLIHLISIPVTNTSVNPARSTAVAIFQGGWALEQLWFFWVVPIVGGIIGGLIYRTLLEKRD
notes: No cleavage of the tag by TEV is reported before the gels; Purified in DDM for Blue-Native PAGE, and in a phosphatidylcholine liposome fraction for SDS-PAGE; also called cell-free synthesized AQPZ
B1: binds.
